Assay results: US20180355059A1

Target: recombinant human PCSK9^D374Y protein (human), Q8NBP7
Experiment: cell-based or functional assay

B1: 103C11E8, chimeric anti-PCSK9 antibody from hybridoma (antibody, V domains shown)
VH: QVQLQESGPGLVKPSGTLSLTCAVSGGSISSSNWWSWVRQPPGKGLEWIGEIYHSGSTNYNPSLKSRVTISVDKSKNQFSLKLSSVTAADTAVYYCARGIAVAGTDVMDAWGQGASVTVSS
VL: EIVLTQSPATLSLSPGERATLSCRASQSVSSYLVWYQQKSGQAPRLLIYGTSNRATGIPARFSGSGSGTDFTLTISSLEPEDFALYYCQQRGNWMYTFGQGTKLEIK
modifications: here or on the partner: biotinylated in the ELISA assays
  LDL (%), LDL uptake by HepG2 cells; antibody 0.67 nM: 20%
  LDL (%), LDL uptake by HepG2 cells; antibody 6.67 nM: 43.8%
  LDL (%), LDL uptake by HepG2 cells; antibody 66.70 nM: 86.4%
